Test results taken from patent US20150368340A1 (US Dept. of Health and Human Services, published 2015).

Key:
[1] = target: cell surface-associated glypican-3 (GPC3) (human) (UniProt P51654); assay: co-IP of GPC3 and Wnt3a from HepG2 xenograft tumor tissue after three weeks of 20 mg/kg HS20 (mutated form); blocked partner Wnt3a (FIG. 17B)
[2] = target: T1, cell surface-associated glypican-3 (GPC3) (human, UniProt P51654 25-554, two heparan sulfate (HS) chains on the C-terminal portion; GPI anchor); assay: flow cytometry on G1 cells, HN3-hFc titrated, one-site binding fit (FIG. 4B)
T1 construct: whole, on cells; also called GPC3 on G1 (A431.GPC3+) cells; GPC3 on HCC cells

[3] = target: T2, recombinant human GPC3 with His tag (GPC3-his) (human, UniProt P51654 25-559, heparan sulfate chains); assay: ELISA, purified GPC3 coated at 1 µg/ml, HN3-hFc titrated, one-site binding fit (FIG. 4A)
T2 construct: range 25-559; also called GPC3 alone; purified GPC3; not shown: six-histidine tag

[4] = target: T1, cell surface-associated glypican-3 …; assay: cell-based or functional assay
[5] = target: cell surface-associated glypican-3 (GPC3) (human) (UniProt P51654); assay: cell-based or functional assay
[6] = target: T2, recombinant human GPC3 with His tag …; assay: ELISA on recombinant GPC3 protein against HS molecules alone (FIG. 13B)
[7] = target: T2, recombinant human GPC3 with His tag …; assay: ELISA on recombinant GPC3 protein (FIG. 13B)
[8] = target: T1, cell surface-associated glypican-3 …; assay: cell-based or functional assay; remark: listed apart in the source
GPC3 N-terminal fragment = target: T3, GPC3 N-terminal fragment (human, UniProt P51654 25-358); assay: phage ELISA on recombinant GPC3 fragments (FIG. 5B)
T3 construct: domain: N-terminal fragment; also called N-terminus alone

GPC3 C-terminal fragment = target: T4, GPC3 C-terminal fragment (human, UniProt P51654 359-559, limits assumed); assay: as above
T4 construct: domain: C-terminal fragment; also called C-terminus alone
T4 sequence (looked up): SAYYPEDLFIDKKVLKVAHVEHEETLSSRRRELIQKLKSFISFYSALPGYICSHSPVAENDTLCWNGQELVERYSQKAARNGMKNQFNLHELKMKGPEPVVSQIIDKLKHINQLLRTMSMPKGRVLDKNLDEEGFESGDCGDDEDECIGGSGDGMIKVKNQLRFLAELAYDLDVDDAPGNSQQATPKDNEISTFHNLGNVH

For “HS20 Mt (HS20 IgG with the N-glycosylation site of the VL removed) (antibody)”, the percent of the GPC3-Wnt3a interaction blocked [1] was 70%.

B1: HN3-human Fc fusion protein (HN3-hFc) (Fc fusion, not shown: a dimerising Fc or GST)
chain: QVQLVQSGGGLVQPGGSLRLSCAASYFDFDSYEMSWVRQAPGKGLEWIGSIYHSGSTYYNPSLKSRVTISRDNSKNTLYLQMNTLRAEDTATYYCARVNMDRFDYWGQGTLVTVSSS
notes: also called HN3 human mAb
For B1, the Kd [2] was 0.15 nM, the Kd [3] was 0.64 nM and the “cell growth inhibition (WST-8), Hep3B cells, IC50” value [4] was about 50000 ng/mL. For the same molecule, the “cell growth inhibition (WST-8), Huh-7 cells, IC50” value [4] was about 50000 ng/mL.

B2: HS20 human IgG (HS20 Wt mAb) (antibody, V domains shown)
VH: EVQLLESGGGLVQPGGSLRLSCAASGFTFSSYAMSWVRQAPGKGLEWVSTIQKQGLPTEYADSVKGRFTISRDNSKNTLYLQMNSLRAEDTAVYYCAKNRAKFDYWGQGTLVTVSS
VL: DIQMTQSPSSLSASVGDRVTITCRASQSISSYLNWYQQKPGKAPKLLIYNASMLQSGVPSRFSGSGSGTDFTLTISSLQPEDFATYYCQQNRGFPLTFGQGTKVEIK
modifications: N-glycosylation site at residue 50 of SEQ ID NO: 16 (CDR2)
notes: also called HS20 IgG; HS20 mAb
B2 was tested, and the decrease in wound closure efficiency (wound healing assay, Hep3B cells, 50 µg/ml HS20) [5] was over 30%, the “fold stronger binding than on HS alone” value [6] was at least 1000 fold and the Kd [7] was 0.75 nM.

B3: HN3(VH)-PE38 immunotoxin (other)
chain: QVQLVQSGGGLVQPGGSLRLSCAASYFDFDSYEMSWVRQAPGKGLEWIGSIYHSGSTYYNPSLKSRVTISRDNSKNTLYLQMNTLRAEDTATYYCARVNMDRFDYWGQGTLVTVSSSAAKASGGPEGGSLAALTAHQACHLPLETFTRHRQPRGWEQLEQCGYPVQRLVALYLAARLSWNQVDQVIRNALASPGSGGDLGEAIREQPEQARLALTLAAAESERFVRQGTGNDEAGAANGPADSGDALLERNYPTGAEFLGDGGDVSFSTRGTQNWTVERLLQAHRQLEERGYVFVGYHGTFLEAAQSIVFGGVRARSQDLDAIWRGFYIAGDPALAYGYAQDQEPDARGRIRNGALLRVYVPRSSLPGFYRTSLTLAAPEAAGEVERLIGHPLPLRLDAITGPEEEGGRLETILGWPLAERTVVIPSAIPTDPRNVGGDLDPSSIPDKEQAISALPDYASQPGKPPREDLK
In the case of B3, the “cytotoxicity IC50 (WST-8), G1 cells, molar” value [4] is reported as 0.0002 nM, the “cytotoxicity IC50 (WST-8), Hep3B cells, molar” value [4] is reported as 0.0004 nM and the “cytotoxicity IC50 (WST-8), HepG2 cells, molar” value [4] is reported as 10 nM. The “cytotoxicity IC50 (WST-8), Huh-1 cells, molar” value [4] was 0.0012 nM, the “cytotoxicity IC50 (WST-8), Huh-7 cells, molar” value [4] was 1.3 nM and the “cytotoxicity IC50 (WST-8), G1 cells” value [8] was 0.01 ng/mL. For the same molecule, the “cytotoxicity IC50 (WST-8), Hep3B cells” value [8] was 0.02 ng/mL, the “cytotoxicity IC50 (WST-8), HepG2 cells” value [8] was 549 ng/mL and the “cytotoxicity IC50 (WST-8), Huh-1 cells” value [8] was 0.06 ng/mL. The “cytotoxicity IC50 (WST-8), Huh-4 cells” value [8] was over 1000 ng/mL and the “cytotoxicity IC50 (WST-8), Huh-7 cells” value [8] was 64 ng/mL.

B4: HN3 single-domain VH displayed on phage (clone HN3) (VHH)
VHH: QVQLVQSGGGLVQPGGSLRLSCAASYFDFDSYEMSWVRQAPGKGLEWIGSIYHSGSTYYNPSLKSRVTISRDNSKNTLYLQMNTLRAEDTATYYCARVNMDRFDYWGQGTLVTVSS
B4: no binding (GPC3 N-terminal fragment); no binding (GPC3 C-terminal fragment).
